Source: patent US20200181261A1 (Bayer, published 2020)
Numbering of substitutions follows the chain as printed.

T1: Human CEACAM6-Domain 1-His (expressed in E. coli), wild-type (human)
T1 construct: entry includes the His tag; also called hDOM1
T1 chain: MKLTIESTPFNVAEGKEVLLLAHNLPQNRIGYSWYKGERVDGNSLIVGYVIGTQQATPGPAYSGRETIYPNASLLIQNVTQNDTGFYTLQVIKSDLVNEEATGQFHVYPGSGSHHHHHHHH

T2: Macaca fascicularis CEACAM6-Domain 1-His (expressed in E. coli) (Macaca fascicularis)
T2 construct: entry includes the His tag; also called TPP-2453; Recombinant single domain 1 of Macaca fascicularis CEACAM6
T2 chain: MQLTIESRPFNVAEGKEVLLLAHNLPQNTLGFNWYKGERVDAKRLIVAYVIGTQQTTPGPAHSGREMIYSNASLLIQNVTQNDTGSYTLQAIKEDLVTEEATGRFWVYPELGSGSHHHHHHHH

T3: Macaca fascicularis (cynomolgus) CEACAM6, full-length, on transfected HeLa cells (Macaca fascicularis, GPI anchor at the C-terminus on the cell surface, not carried by the letters)
T3 construct: also called TPP-4189; HeLa Cynomolgus CEACAM6
T3 chain: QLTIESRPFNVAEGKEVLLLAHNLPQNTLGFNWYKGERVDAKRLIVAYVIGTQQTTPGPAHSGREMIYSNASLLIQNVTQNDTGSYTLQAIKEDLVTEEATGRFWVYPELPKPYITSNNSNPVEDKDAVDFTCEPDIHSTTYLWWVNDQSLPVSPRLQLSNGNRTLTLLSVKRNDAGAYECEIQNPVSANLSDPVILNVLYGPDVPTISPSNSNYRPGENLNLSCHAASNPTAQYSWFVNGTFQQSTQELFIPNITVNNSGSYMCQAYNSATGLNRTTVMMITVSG

T4: human CEACAM8, full-length, on transfected HeLa cells (human, UniProt P31997 35-320)
T4 construct: also called TPP-4190; HeLa human CEACAM8
T4 sequence: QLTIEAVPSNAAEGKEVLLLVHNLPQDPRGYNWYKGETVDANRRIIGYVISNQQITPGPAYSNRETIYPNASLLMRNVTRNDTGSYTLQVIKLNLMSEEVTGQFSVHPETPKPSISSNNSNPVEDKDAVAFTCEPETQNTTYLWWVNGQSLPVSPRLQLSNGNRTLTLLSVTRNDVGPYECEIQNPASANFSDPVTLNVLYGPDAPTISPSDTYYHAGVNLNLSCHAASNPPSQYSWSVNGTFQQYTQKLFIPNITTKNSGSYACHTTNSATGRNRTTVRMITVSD

T5: human CEACAM3, full-length, on transfected HeLa cells (human, UniProt P40198 35-252)
T5 construct: also called TPP-4187; HeLa human CEACAM3
T5 sequence: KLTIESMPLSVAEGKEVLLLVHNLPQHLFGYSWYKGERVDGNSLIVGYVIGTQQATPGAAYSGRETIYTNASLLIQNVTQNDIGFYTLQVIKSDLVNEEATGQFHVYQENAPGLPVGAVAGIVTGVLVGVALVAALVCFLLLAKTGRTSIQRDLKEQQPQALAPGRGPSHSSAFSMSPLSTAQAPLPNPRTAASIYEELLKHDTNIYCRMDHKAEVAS

B1: TPP-3714 (antibody, human IgG2, kappa)
heavy: QVTLRESGPALVKPTQTLTLTCTFSGFSLSTYGIGVGWIRQPPGKALEWLAHIWWNDNKYYSTSLKTRLTISKDTSKNQVVLTMTNMDPVDTATYYCARISLPYFDYWGQGTLVTVSSASTKGPSVFPLAPCSRSTSESTAALGCLVKDYFPEPVTVSWNSGALTSGVHTFPAVLQSSGLYSLSSVVTVPSSNFGTQTYTCNVDHKPSNTKVDKTVERKCCVECPPCPAPPVAGPSVFLFPPKPKDTLMISRTPEVTCVVVDVSHEDPEVQFNWYVDGVEVHNAKTKPREEQFNSTFRVVSVLTVVHQDWLNGKEYKCKVSNKGLPAPIEKTISKTKGQPREPQVYTLPPSREEMTKNQVSLTCLVKGFYPSDIAVEWESNGQPENNYKTTPPMLDSDGSFFLYSKLTVDKSRWQQGNVFSCSVMHEALHNHYTQKSLSLSPG
light: DIQLTQSPSFLSASVGDRVTITCKASQNVGTAVAWYQQKPGKAPKLLIYSASNRYTGVPSRFSGSGSGTEFTLTISSLQPEDFATYYCQQYSSYPLTFGGGTKVEIKRTVAAPSVFIFPPSDEQLKSGTASVVCLLNNFYPREAKVQWKVDNALQSGNSQESVTEQDSKDSTYSLSSTLTLSKADYEKHKVYACEVTHQGLSSPVTKSFNRGEC
notes: humanized from TPP-2971, human IgG2; also called TPP-2971HU2-hIgG2Kappa
B2: TPP-3705 (antibody, human IgG2, kappa, V domains shown)
VH: EVQLVESGGGLVQPGGSLRLSCAASGFTFSLYQMHWVRQAPGKGLEWVSWISFSGGNTGYADSVKGRFTISRDNSKNTLYLQMNSLRAEDTAVYYCARATGYSSPWYLDPWGQGTLVTVSS
VL: DIQMTQSPSSLSASVGDRVTITCQASHEIDNYLNWYQQKPGKAPKLLIYDAYWLKTGVPSRFSGSGSGTDFTLTISSLQPEDIATYYCQGYDDLSVTFGGGTKVDIKR
notes: also called 090E-M007-A09-Mat1-hIgG2-hIgG2Kappa
B3: TPP-3707 (antibody, human IgG2, kappa, V domains shown)
VH: B2 VH
VL: B2 VL with L54S
notes: also called 090E-M007-A09-Mat2-hIgG2-hIgG2Kappa
B4: TPP-3821 (antibody, human IgG2, kappa, V domains shown)
VH: QVTLRESGPALVKPTQTLTLTCTFSGFSLSTYGIGVGWIRQPPGKALEWLAHIWWNDNKYYSTSLKTRLTISKDTSKNQVVLTMTNMDPVDTATYYCARISLPYFDYWGQGTLVTVSS
VL: DIQLTQSPSFLSASVGDRVTITCKASQNVGTAVAWYQQKPGKAPKLLIYSASNRYTGVPSRFSGSGSGTEFTLTISSLQPEDFATYYCQQYNNYPLTFGGGTKVEIKR
notes: humanized from TPP-3187, human IgG2; also called 3187HU2-hIgG2Kappa
B5: TPP-3310 (antibody, human IgG2, kappa)
heavy: B1 heavy with L113T, V114L
light: B1 light
notes: humanized from TPP-2971, human IgG2; also called TPP-2971HU1-hIgG2Kappa
B6: TPP-3820 (antibody, human IgG2, kappa, V domains shown)
VH: B4 VH with S30T, A46G
VL: B4 VL
notes: humanized from TPP-3187, human IgG2; also called 3187HU1-hIgG2Kappa
B7: TPP-2971 (antibody, mouse IgG1, V domains shown)
VH: QVTLKESGPGILQPSQTLSLTCSFSGFSLSTYGIGVGWIRQPSGKDLEWLAHIWWNDNKYYNTALKSRLTISKDTSNNQVFLKIASVDTADTATYYCARISLPYFDYWGQGTTLTVSS
VL: DIVMTQSQKFMSTSVGDRVSITCKASQNVGTAVAWYQQKPGQSPKLLIYSASNRYTGVPDRFTGSGSGTDFTLTISNMQSEDLADYFCQQYSSYPLTFGAGTKLELK
notes: murine hybridoma antibody, mouse IgG1; also called 792.15H12C9
B8: TPP-3187 (antibody, mouse IgG1, V domains shown)
VH: B7 VH with S30T, D46G
VL: B7 VL with S92N, S93N
notes: murine hybridoma antibody, mouse IgG1; also called 792.15C4F4

What was measured:
[1] = biological target: T1, Human CEACAM6-Domain 1-His (expressed …); assay: SPR, antibody captured, antigen as analyte
Protocol: (§1) Surface plasmon resonance (SPR) experiments for quantitative binding analyses were performed either using a Biacore T100, Biacore T200 or a Biacore 4000 instrument (GE Healthcare Biacore, Inc.) equipped with Series S Sensor Chips CM5 (GE Healthcare Biacore, Inc.). Binding assays were carried out at 25° C. with assay buffer HBS-EP+(10 mM HEPES pH 7.4, 150 mM NaCl, 3 mM EDTA, 0.05% Surfactant P20). Antibodies were captured with an anti-hIgG capture antibody covalently immobilized to the chip surface via amine coupling chemistry. Reagents for amine coupling (1-ethyl-3-(3-dimethylaminopropyl) carbodiimide hydrochloride (EDC), N-hydroxysuccinimide (NHS), ethanolamine-HCl pH 8.5) were used from the Amine Coupling Kit (GE Healthcare, product code BR-1000-50). Anti-hIgG, anti-mIgG capture antibodies and immobilization buffer (10 mM sodium acetate pH 5.0) were used from the Human Antibody Capture Kit (GE Healthcare, BR-1008-39) and the Mouse Antibody Capture Kit (GE Healthcare, BR-1008-38), respectively. The sensor chip surface was activated with a freshly prepared solution of 0.2 M EDC and 0.05 M NHS passed over the chip surface for 420 s at a flow rate of 10 μl/min, followed by an injection of anti-hIgG or anti-mIgG capture antibody (dissolved to 25 μg/ml in immobilization buffer) for 180 s at a flow rate of […]. Excess of activated groups were blocked with a 1 molar solution of ethanolamine injected at a flow rate of 10 μl/min for 420 s.
(§2) CEACAM antigens were used as analyte to determine KD values. Antibodies were captured for 20 s at a flow rate of 10 μl/min prior to each analyte injection.

[2] = biological target: T2, Macaca fascicularis CEACAM6-Domain …; assay: SPR, antibody captured, antigen as analyte
Protocol: as §1, §2

[3] = biological target: T3, Macaca fascicularis (cynomolgus) …; assay: FACS, transfected HeLa cells
Protocol: (§3) For FACS experiments HeLa wild type cells were cultured in RPMI-1640, 10% FCS, while CEACAM-receptor transfected HeLa cells received in addition 0.5% Gentamycin (stock 10 mg/ml, Fa. PAA) and 200 μg/ml Hygromycin B (stock 50 mg/ml, Invitrogen). Cells were washed 3 times with PBS w/o Ca²⁺/Mg²⁺ and were detached from the culture plate non-enzymatically with EDTA dissociation buffer (Gibco). Cells were washed in cold FACS buffer (PBS w/o Ca²⁺/Mg²⁺ and heat-inactivated 3% FCS) and were counted using a countess machine (Invitrogen). 10⁵ cells per well were plated and incubated with the respective primary antibody (5 μg/ml) for 1 h at 4° C. on a plate shaker. […] After 2 times washing the cells were resuspended in 100 μl FACS buffer and were analysed on a FACS Canto II machine (Beckton Dickinson) or a FACS Array (Beckton Dickinson).
(§4) For EC₅₀ analysis, the primary antibodies were used at increasing concentrations in a range from 0.1 nM to 100 nM. Half maximal binding values (EC₅₀) were determined by plotting the median fluorescence intensity signal against the concentration (logarithmic scale). Curve fitting of data was performed using the Graph Pad prism analysis software.

[4] = biological target: T4, human CEACAM8, full-length, on …; assay: FACS, transfected HeLa cells
Protocol: as §3, §4

[5] = biological target: T5, human CEACAM3, full-length, on …; assay: FACS, transfected HeLa cells
Protocol: as §3, §4

Binder | Kd [1] [nM] | Kd [2] [nM] | EC50 [3] [nM] | binding result [4] | binding result [5] | FACS median fluorescence [3] [medianfluorescence]
B1 | 3.7 | 3.2 | 1 | no binding (tested: 5 µg/ml) | no binding (tested: 5 µg/ml) | –
B2 | 6.7 | 2.7 | – | – | – | –
B3 | 6.4 | 2.4 | 4 | no binding (tested: 5 µg/ml) | – | –
B4 | 4.5 | 4.7 | 1 | no binding (tested: 5 µg/ml) | no binding (tested: 5 µg/ml) | –
B5 | 3.7 | 3.4 | 1.5 | no binding (tested: 5 µg/ml) | no binding (tested: 5 µg/ml) | –
B6 | 5.1 | 5.2 | 1 | no binding (tested: 5 µg/ml) | no binding (tested: 5 µg/ml) | –
B7 | 11 | 5.3 | 0.5 | no binding (tested: 5 µg/ml) | no binding (tested: 5 µg/ml) | 100 to 1000
B8 | 12 | 6.9 | 4 | no binding (tested: 5 µg/ml) | no binding (tested: 5 µg/ml) | 100 to 1000
